US20070298510A1 (CANON, published 2007)

Target: T1, hen egg-white lysozyme (hen, UniProt P00698 19-147)
T1 construct: In solution in phosphate-buffered saline, captured in a sandwich between the first and second peptide molecules; also called HEL; target substance 173
Experiment: sandwich on TMR element: immobilized scFv, HEL, Fab on magnetic beads; magnetic read-out

T1 sequence (P00698 19-147): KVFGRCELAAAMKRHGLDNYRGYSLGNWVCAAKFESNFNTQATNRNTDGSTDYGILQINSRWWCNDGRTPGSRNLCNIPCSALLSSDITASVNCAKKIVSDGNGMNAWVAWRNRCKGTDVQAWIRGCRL

B1: HyHEL10 scFv (single chain Fv of an anti-HEL antibody) (scFv)
scFv: DIVLTQSPATLSVTPGNSVSLSCRASQSIGNNLHWYQQKSHESPRLLIKYASQSISGIPSRFSGSGSGTDFTLSINSVETEDFGMYFCQQSNSWPYTFGGGTKLIITAGGGGSGGGGSGGGGSDIQLQESGPSLVKPSQTLSLTCSVTGDSITSDYWSWIRKFPGNRLEYMGYVSYSGSTYYNPSLKSRISITRDTSKNQYYLDLNSVTTEDTATYYCANWDGDYWGQGTLVTVSA
notes: Purified as a His-tag-fused polypeptide; In the assay it was immobilized on the silicon film or substrate via aminosilane and glutaraldehyde; also called scFv of the anti-HEL antibody; scFv of the HEL antibody
binding result: binds
